Patent US20200121803A1 (published 2020)
Where a chain is given by its changes, count along the chain named.

B1: Ab14-CZ (Ab14 conjugated to Bcl-xL inhibitor synthon CZ) (antibody, V domains shown)
VH: EVKLQQSGDELVRPGASVKISCKASGYTFTSYSMHWVKERPGQGLEWIGAIFPIIGTTEYNQKFKGKATLTADKSSNTANMELSRLTSEDSAVYYCARVYLSYFDYWGQGVMVTVSS
VL: DIQMTQSPSFLSASVGDRVTINCKASQNINKYLDWYQRKHGEAPKLLIYNTNNLQTGIPSRFSGSGSGTDYTLTISSLQPEDVATYFCLQHSSRYTFGAGTKLELK
B2: Ab6-CZ (Ab6 conjugated to Bcl-xL inhibitor synthon CZ) (antibody, V domains shown)
VH: QVQLKESGPGLAQPSQTLSLTCTVSGFSLSTYGVIWLRQPPGKGLEWMGVIWTNGNTNYNSTLKSRLSISRDTSESQVYLQMNSLQTEDTATYYCARHYYDGAYYYGYFDYWGQGVMVTVSS
VL: DIVMTQTPSSQAVSAGEKVTMSCKSSQSLLYSENKKNYLAWYQQKPGQSPKLLIYWASTRESGVPDRFIGSGSGTDFTLTISSVQAEDLAVYYCQQYYYFPYTFGAGTKLELK
B3: Ab13-CZ (Ab13 conjugated to Bcl-xL inhibitor synthon CZ) (antibody, V domains shown)
VH: B2 VH with A12V, T31S, L37V, V50I, T53A, T62A, E75K, Q81K, A103T, Y104H
VL: B2 VL with I2T, N37K, Y99N
B4: Ab7-CZ (Ab7 conjugated to Bcl-xL inhibitor synthon CZ) (antibody, V domains shown)
VH: B2 VH with A12V, L37V, T53A, E75K, Q81K, A103T
VL: B2 VL with S22N, A106P
B5: Ab9-CZ (Ab9 conjugated to Bcl-xL inhibitor synthon CZ) (antibody, V domains shown)
VH: B2 VH with A12V, T23A, T31N, L37V, G49A, E75K, Q81K, A103T
VL: B2 VL with S32T, I69M, T103M
B6: Ab8-CZ (Ab8 conjugated to Bcl-xL inhibitor synthon CZ) (antibody, V domains shown)
VH: EVQLVESGGGLVQPGRSLKLSCAASGFTFSDYAMAWVRQAPKKGLEWVASIIYDGRGTYYRDSVKGRFTISRDNAKSTLYLQMDSLRSEDTATYYCARQGDGTYYYWGYFDYWGQGVMVTVSS
VL: DIVMTQSPSSLAVSAGETVTINCKSSQSLLSSGNQKNYLAWYQQKPGQSPKLLIYWASTRQSGVPDRFIGSGSGTDFTLTINSVQAEDLAIYYCQQYYDTPYTFGAGTKLELK
B7: Ab10-CZ (Ab10 conjugated to Bcl-xL inhibitor synthon CZ) (antibody, V domains shown)
VH: B6 VH with G44S, S50T, Y60C, Y105H
VL: B6 VL with N82S, L110V, E111D
B8: Ab12-CZ (Ab12 conjugated to Bcl-xL inhibitor synthon CZ) (antibody, V domains shown)
VH: B6 VH with Y109S
VL: B6 VL with N82S, Y93H
B9: Ab15-CZ (Ab15 conjugated to Bcl-xL inhibitor synthon CZ) (antibody, V domains shown)
VH: B6 VH with A33T, S50T, G100S
VL: B6 VL with S31F, N82R, T100S
B10: Ab11-CZ (Ab11 conjugated to Bcl-xL inhibitor synthon CZ) (antibody, V domains shown)
VH: B6 VH with S50G
VL: B6 VL with K24R, N82S
B11: Ab1-CZ (Ab1 conjugated to Bcl-xL inhibitor synthon CZ) (antibody, V domains shown)
VH: EVKLVESGGGLVQPGGSLRLSCATSGFTFTDYYMSWVRQPPGKALEWLGFIRNPANVYTTEYSASVKGRFTISRDNSQSILYLQMNTLRAEDSATYYCARASYGNSEGWFAYWGQGTLVTVSA
VL: DIVMSQSPSSLAVSVGEKVTMSCKSSQNLLYNNNQKNYLAWYQQKPGQSPKLLIYWASTRESGVPDRFTGSGSGTDFTLTISSVKAEDLAVYYCQQYYSYPRTFGGGTKLEIK
B12: Ab4-CZ (Ab4 conjugated to Bcl-xL inhibitor synthon CZ) (antibody, V domains shown)
VH: B11 VH with A23T, P54K, N56T, V57I
VL: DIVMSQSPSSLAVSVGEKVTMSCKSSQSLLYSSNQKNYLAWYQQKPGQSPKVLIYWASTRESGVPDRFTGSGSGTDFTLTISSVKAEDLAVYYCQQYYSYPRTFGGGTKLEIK
B13: Ab3-CZ (Ab3 conjugated to Bcl-xL inhibitor synthon CZ) (antibody, V domains shown)
VH: EVKLVESGGGLVQPGNSLRLSCATSGFTFIDYYMSWVRQSPGKALEWLGFIRNKANGYTTEYSASVKGRFTISRDNSQSILYLQMDTLRAEDSATYYCTRDRPAWFVYWGQGTLVTVSA
VL: B11 VL with N28S, N32S, N33S, I81F, K85R, R102Y
B14: Ab5-CZ (Ab5 conjugated to Bcl-xL inhibitor synthon CZ) (antibody, V domains shown)
VH: B11 VH with S35T, P54K, V57G, Q78L, G104V
VL: B11 VL with N28S, N32S, N33S, P46L, Q96H
B15: Ab2-CZ (Ab2 conjugated to Bcl-xL inhibitor synthon CZ) (antibody, V domains shown)
VH: B11 VH with T28N, P54K, V57G, N76D
VL: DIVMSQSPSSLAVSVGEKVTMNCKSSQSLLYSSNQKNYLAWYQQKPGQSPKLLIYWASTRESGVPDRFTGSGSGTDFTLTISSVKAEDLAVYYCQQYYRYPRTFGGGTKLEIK
B16: CD98 (CL-huAb110)-ZZ (antibody, human IgG1, kappa, L234A L235A, V domains shown)
VH: EVQLVQSGAEVKKPGASVKVSCKASGFTFSDYTMAWVRQAPGQGLEWVATIIYDARGTYYRDAVKGRFTITRDNSTSTLYLELSSLRSEDTAVYYCARQSDDTYYYWGYFDYWGQGTMVTVSS
VL: DIVMTQTPLSLPVTPGEPASINCKSSQSLLFSGNQKNYLAWYLQKPGQSPQLLIYWASTRQSGVPDRFSGSGSGTDFTLKISRVEAEDVGIYYCQQYYSSPYTFGQGTKLEIKR
modifications: synthon ZZ on reduced cysteine (see heavy chain); Bcl-xL inhibitor synthon ZZ on cysteines freed by TCEP reduction (Method G); DAR 1.0 by MS for the whole ADC
B17: CD98 (CL-huAb102)-XW (antibody, human IgG1, kappa, L234A L235A, V domains shown)
VH: EVQLVESGGGLVQPGGSLRLSCATSGFTFIDYYMSWVRQAPGKGLEWLGFIRNKANRYTTEYSASVKGRFTISRDNSKSILYLQMNSLKTEDTAVYYCTRDRPAWFVYWGQGTLVTVSS
VL: B16 VL with N22S, F31Y, G33S, Q61E, I91V, S100Y, Q106G, L110V
modifications: synthon XW on reduced cysteine (see heavy chain); Bcl-xL inhibitor synthon XW on cysteines freed by TCEP reduction (Method G); DAR 2.8 by MS for the whole ADC
B18: CD98 (CL-huAb110)-XW (antibody, human IgG1, kappa, L234A L235A, V domains shown)
VH: B16 VH
VL: B16 VL
modifications: synthon XW on reduced cysteine (see heavy chain); Bcl-xL inhibitor synthon XW on cysteines freed by TCEP reduction (Method G); DAR 3.2 by MS for the whole ADC
B19: CD98 (CL-huAb104)-XW (antibody, human IgG1, kappa, L234A L235A, V domains shown)
VH: B17 VH with N56Y, R57G
VL: B16 VL with N22S, F31Y, G33S, Q61E, I91V, S100Y, Q106G, L110V
modifications: synthon XW on reduced cysteine (see heavy chain); Bcl-xL inhibitor synthon XW on cysteines freed by TCEP reduction (Method G); DAR 3.1 by MS for the whole ADC
B20: CD98 (CL-huAb108)-XW (antibody, human IgG1, kappa, L234A L235A, V domains shown)
VH: B16 VH with D54S, A55G
VL: B16 VL with S99D, S100V
modifications: synthon XW on reduced cysteine (see heavy chain); Bcl-xL inhibitor synthon XW on cysteines freed by TCEP reduction (Method G); DAR 3.5 by MS for the whole ADC

Target: T1, Human CD98, endogenous on HCC38, Molt-4 and Jurkat human cancer cells (human)
T1 chain: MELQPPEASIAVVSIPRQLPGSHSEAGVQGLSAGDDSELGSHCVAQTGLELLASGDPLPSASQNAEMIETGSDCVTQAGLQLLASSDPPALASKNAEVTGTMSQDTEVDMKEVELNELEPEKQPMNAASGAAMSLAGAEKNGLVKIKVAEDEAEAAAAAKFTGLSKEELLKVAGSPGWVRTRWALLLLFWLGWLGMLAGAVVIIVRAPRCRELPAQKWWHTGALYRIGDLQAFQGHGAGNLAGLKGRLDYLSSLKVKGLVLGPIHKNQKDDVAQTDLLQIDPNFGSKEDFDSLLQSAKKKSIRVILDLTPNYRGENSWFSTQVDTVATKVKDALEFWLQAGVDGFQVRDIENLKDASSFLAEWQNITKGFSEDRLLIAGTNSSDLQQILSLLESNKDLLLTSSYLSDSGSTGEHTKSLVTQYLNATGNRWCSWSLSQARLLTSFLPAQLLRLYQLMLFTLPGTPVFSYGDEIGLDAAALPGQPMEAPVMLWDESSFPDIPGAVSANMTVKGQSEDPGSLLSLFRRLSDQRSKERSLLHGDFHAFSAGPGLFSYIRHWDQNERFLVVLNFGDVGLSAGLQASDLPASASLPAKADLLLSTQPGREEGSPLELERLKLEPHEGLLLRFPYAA
Assay: cell-based or functional assay

| ADC potency, IC50 (nM), HCC38 growth inhibition | ADC potency, IC50 (nM), Jurkat growth inhibition | ADC potency, IC50 (nM), Molt-4 growth inhibition | Binder |
| --- | --- | --- | --- |
| 0.798 nM | 0.063 nM | 0.025 nM | B1 |
| 0.438 nM | 0.086 nM | 0.057 nM | B2 |
| 0.787 nM | 0.149 nM | 0.38 nM | B3 |
| 1.15 nM | 0.134 nM | 0.079 nM | B4 |
| 1.09 nM | 0.092 nM | 0.03 nM | B5 |
| 0.963 nM | 0.121 nM | 0.079 nM | B6 |
| 1.16 nM | 0.148 nM | 0.047 nM | B7 |
| 0.685 nM | 0.094 nM | 0.087 nM | B8 |
| 1.06 nM | 0.076 nM | 0.071 nM | B9 |
| 1.14 nM | 0.311 nM | 0.279 nM | B10 |
| 0.998 nM | 0.05 nM | 0.053 nM | B11 |
| 0.879 nM | 0.371 nM | 0.127 nM | B12 |
| 0.561 nM | 0.071 nM | 0.031 nM | B13 |
| 0.728 nM | 0.137 nM | 0.022 nM | B14 |
| 0.791 nM | 0.065 nM | 0.05 nM | B15 |

Target: T2, human CD98, endogenously expressed on Molt-4 human acute lymphoblastic leukemia cells (human)
T2 chain: T1 chain
Assay: cell-based or functional assay

| Molt4 IC50 (nM), 50% inhibition of cell proliferation, 72 h, ATPlite | Binder | % Cell Viability at 50 nM (Molt-4) |
| --- | --- | --- |
| 0.252 nM | B16 | 4.3% |
| 0.074 nM | B17 | 32% |
| 0.308 nM | B18 | 19.6% |
| 0.102 nM | B19 | 31.1% |
| 0.281 nM | B20 | 20.9% |
